This series concerns T1, AcuI restriction endonuclease (recombinant, clone #288) V1M (Acinetobacter calcoaceticus SRW4).
T1 sequence: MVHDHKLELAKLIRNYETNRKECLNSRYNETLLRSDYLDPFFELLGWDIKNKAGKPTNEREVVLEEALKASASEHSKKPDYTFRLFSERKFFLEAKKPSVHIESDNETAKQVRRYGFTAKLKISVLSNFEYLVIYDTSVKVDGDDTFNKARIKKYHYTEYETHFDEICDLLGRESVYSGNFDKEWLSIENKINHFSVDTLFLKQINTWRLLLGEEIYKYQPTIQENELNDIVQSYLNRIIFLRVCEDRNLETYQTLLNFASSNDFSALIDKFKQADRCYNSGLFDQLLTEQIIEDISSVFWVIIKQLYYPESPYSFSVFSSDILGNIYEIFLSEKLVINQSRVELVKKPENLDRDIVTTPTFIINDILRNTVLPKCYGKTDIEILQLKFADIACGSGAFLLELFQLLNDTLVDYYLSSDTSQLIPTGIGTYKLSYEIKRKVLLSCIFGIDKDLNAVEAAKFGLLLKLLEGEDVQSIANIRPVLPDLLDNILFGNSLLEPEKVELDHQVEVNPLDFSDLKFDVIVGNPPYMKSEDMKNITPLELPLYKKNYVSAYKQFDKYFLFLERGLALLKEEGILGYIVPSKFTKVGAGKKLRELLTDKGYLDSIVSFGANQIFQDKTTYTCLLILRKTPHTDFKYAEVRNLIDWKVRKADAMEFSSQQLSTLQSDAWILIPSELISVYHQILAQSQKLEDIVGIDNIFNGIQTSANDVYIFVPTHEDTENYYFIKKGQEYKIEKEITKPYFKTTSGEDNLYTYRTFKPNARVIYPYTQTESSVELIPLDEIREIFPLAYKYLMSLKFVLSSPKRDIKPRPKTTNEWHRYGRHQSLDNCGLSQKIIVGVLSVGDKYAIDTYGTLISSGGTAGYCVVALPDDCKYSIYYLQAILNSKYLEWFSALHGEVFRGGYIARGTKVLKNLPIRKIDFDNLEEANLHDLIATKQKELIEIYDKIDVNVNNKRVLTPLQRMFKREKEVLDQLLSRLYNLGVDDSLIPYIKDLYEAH
Description: cleavage_in_vitro. To be noted: cell extract; lambda DNA substrate.

On to lambda DNA, for which the activity (units per gram wet cells) was 17400.

Values taken from patent US20040209257.
